Source: patent publication US20250296960A1, “PEPTIDE COMPOSITIONS AND METHODS OF USE THEREOF” (priority 2022, published 2025)
Numbered stars: 1 amine (or outer) side, 2 acyl side, 3 side chain; on linkers, the order of the positions; unused ones are H or OH. Square brackets hold non-standard residues; d marks the D form. Side chains are listed from the residue outwards. Ends that are not written are not given here. Peptide text beside a SMILES is read from it. * marks the point of attachment. C18 = C18 fatty acid (C16-C22 fatty acids conjugated via γGlu/8-amino-3,6-dioxaoctanoic acid spacers); Biotin = O=C1N[C@H]2[C@H](CS[C@H]2CCCCC(=O)*)N1; C18 diacid = O=C(O)CCCCCCCCCCCCCCCCC(=O)*; γGlu = O=C(O)[C@H](CCC(=O)[*:2])N[*:1]; AEEA = NCCOCCOCC(=O)O; Aib = CC(C)(N)C(=O)O

Tests used:
[1] = In vivo efficacy in mAMLN (NASH) mice, 2 weeks
[2] = Body weight loss in normal C57BL/6 mice, subcutaneous dosing; type: in vivo; conditions: normal mice; 20 nmol/kg QD; Weight loss at 48 hr
[3] = Intestinal absorption / PK after intraduodenal administration of oral formulation in rats, serum LC-MS/MS; conditions: rat, in vivo, 300 nmol/kg
Experimental: This study was conducted to evaluate the intestinal absorption of peptides following enteral administration of oral pharmaceutical formulations. The pharmaceutical formulation was administered in a form of suspensions by intraduodenal (ID) injection in rats. SEQ ID_87, 89 and 90 was accurately weighed and dissolved in 10 mM PBS containing polysorbate 80 (pH 7.4, vehicle I). The mixture was vortexed for 5 min to get a clear solution. Then, 2.5 mL of vehicle was added to the mixture and vortexed for 30 min to get homogenous opaque suspension. The composition of Vehicle II was sodium chenodeoxycholate, and propyl gallate in polysorbate 80 in PBS. The animals were not fasted prior to dosing. 0.2˜ 0.4 mL of whole blood was taken from vein at each time point (0, 0.167, 0.5, 1, 2, 4, 8, 24, and 48 hrs after IV or ID administration). The collected whole blood was incubated at room temperature for 20 min and tubes were centrifugated at 13,000 rpm for 10 min at 4° C. The resulting serum 0.1˜ 0.2 mL was transferred into the tube and stored at −70° C. until analysis. The concentrations of peptides in serum were determined by LC-MS/MS analysis. PK parameters were analyzed by non-compartmental analysis using Phoenix WinNonlin 5.0.1. software (Pharsight Corporation, Mountain View, CA, USA).

[4] = target: human GLP-1 receptor (GLP-1R), expressed on CHO-K1 cells (human, UniProt P43220 24-463); assay: cell-based or functional assay
[5] = target: human glucagon receptor (GCGR), expressed on CHO-K1 cells (human, UniProt P47871 26-477); assay: cell-based or functional assay
Chain of human glucagon receptor (GCGR), expressed on CHO-K1 cells (P47871 26-477): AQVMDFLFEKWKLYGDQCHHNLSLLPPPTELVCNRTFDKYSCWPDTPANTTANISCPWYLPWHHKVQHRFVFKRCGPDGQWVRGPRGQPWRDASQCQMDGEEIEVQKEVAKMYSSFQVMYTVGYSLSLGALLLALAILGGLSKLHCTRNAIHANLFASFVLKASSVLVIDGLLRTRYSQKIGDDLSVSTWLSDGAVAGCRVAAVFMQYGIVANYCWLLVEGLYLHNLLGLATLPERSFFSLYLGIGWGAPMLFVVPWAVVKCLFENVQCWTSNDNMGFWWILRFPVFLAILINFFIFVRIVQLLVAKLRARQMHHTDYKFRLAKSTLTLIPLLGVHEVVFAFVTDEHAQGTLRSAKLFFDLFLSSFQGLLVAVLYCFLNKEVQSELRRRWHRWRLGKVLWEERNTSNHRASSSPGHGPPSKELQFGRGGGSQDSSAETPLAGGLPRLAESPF

[6] = target: T1, human glucose-dependent insulinotropic polypeptide receptor (GIPR), expressed on CHO-K1 cells (human, UniProt P48546 22-466); assay: cell-based or functional assay
T1 sequence (looked up): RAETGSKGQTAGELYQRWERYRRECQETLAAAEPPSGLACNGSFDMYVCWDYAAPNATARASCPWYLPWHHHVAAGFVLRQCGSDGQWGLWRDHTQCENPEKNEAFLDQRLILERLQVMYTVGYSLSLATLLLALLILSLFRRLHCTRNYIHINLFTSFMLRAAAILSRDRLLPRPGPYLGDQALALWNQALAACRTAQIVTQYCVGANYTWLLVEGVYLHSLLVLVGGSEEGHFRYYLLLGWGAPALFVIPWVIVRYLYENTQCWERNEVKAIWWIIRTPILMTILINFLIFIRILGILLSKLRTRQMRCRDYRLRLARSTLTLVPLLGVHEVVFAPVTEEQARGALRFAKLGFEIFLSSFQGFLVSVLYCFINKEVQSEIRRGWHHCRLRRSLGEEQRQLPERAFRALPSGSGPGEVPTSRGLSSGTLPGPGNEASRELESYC

Molecule | Ratio vs. GLP-1R [4] | Relative % to native ligand [4] | Ratio vs. GLP-1R [5] | Relative % to native ligand [5] | Ratio vs. GLP-1R [6] | Relative % to native ligand [6] | further results
YAibQGT FTSDY SK*YLD YMMARDFVQWLIEGGPSSGAPPPS (Y[Aib]QGTFTSDYSK([AEEA-AEEA-γGlu-C18])YLDYMMARDFVQWLIEGGPSSGAPPPS-NH2) [5-1D, K* = lysine lipidated with 2OEG-γGlu-C18] | – | – | – | – | – | – | blood glucose, in words ([1]; 20 nmol/kg s.c. Q2D, 2 weeks): reduce blood glucose; body weight, in words ([1]; 20 nmol/kg s.c. Q2D, 2 weeks): reduce body weight; hepatic triglyceride content, in words ([1]; end of treatment): reduce hepatic triglyceride content; liver weight, in words ([1]; end of treatment): reduce liver weight; mRNA levels of TGF-β1 (inflammation marker) and ACTA2 (fibrosis marker), in words ([1]; end of treatment): reduce both TGF-β1 and ACTA2; Weight loss (%) [2]: 16.7 ± 1.3%
CSCC[C@H](NC(=O)[C@H](Cc1ccc(O)cc1)NC(=O)[C@H](CC(=O)O)NC(=O)[C@H](CC(C)C)NC(=O)[C@H](CC(C)C)NC(=O)[C@H](CCCCNC(=O)COCCOCCNC(=O)COCCOCCNC(=O)CC[C@H](NC(=O)CCCCCCCCCCCCCCCCC(=O)O)C(=O)O)NC(=O)[C@H](CO)NC(=O)[C@H](Cc1ccc(O)cc1)NC(=O)[C@H](CC(=O)O)NC(=O)[C@H](CO)NC(=O)[C@@H](NC(=O)[C@H](Cc1ccccc1)NC(=O)[C@@H](NC(=O)CNC(=O)[C@H](CCC(N)=O)NC(=O)C(C)(C)NC(=O)[C@@H](N)Cc1ccc(O)cc1)[C@@H](C)O)[C@@H](C)O)C(=O)N[C@@H](CCSC)C(=O)N[C@@H](CCC(N)=O)C(=O)N[C@@H](CCCNC(=N)N)C(=O)N[C@@H](CC(=O)O)C(=O)N[C@@H](Cc1ccccc1)C(=O)N[C@H](C(=O)N[C@@H](CCC(N)=O)C(=O)N[C@@H](Cc1c[nH]c2ccccc12)C(=O)N[C@@H](CC(C)C)C(=O)N[C@@H](CC(C)C)C(=O)N[C@@H](CCC(=O)O)C(=O)NCC(=O)NCC(=O)N1CCC[C@H]1C(=O)N[C@@H](CO)C(=O)N[C@@H](CO)C(=O)NCC(=O)N[C@@H](C)C(=O)N1CCC[C@H]1C(=O)N1CCC[C@H]1C(=O)N1CCC[C@H]1C(=O)N[C@@H](CO)C(=O)N[C@@H](CCCCNC(=O)CCCC[C@@H]1SC[C@@H]2NC(=O)N[C@@H]21)C(N)=O)C(C)C [SEQ ID_90] (H-Y[Aib]QGTFTSDYSK([AEEA-AEEA-γGlu-C18 diacid])LLDYMMQRDFVQWLLEGGPSSGAPPPSK(Biotin)-NH2; N-terminus and C-terminus assumed) | – | – | – | – | – | – | AUC(0-inf) [3]: 2490 ng·h/mL; Cmax [3]: 282 ± 88.5 ng/mL; MRT inf [3]: 11.8 ± 1.48 h; Tmax [3]: 0.3 ± 0.18 h; half-life [3]: 8.37 ± 0.92 h
Y[Aib]QGTFTSDYSK([AEEA-AEEA-γGlu-C18])LLDYMMQ[Aib]DFVQYLLEGGPSSGAPPPS-NH2 [SEQ ID NO. 85] | 100 | 12% | 305 | 38% | 1150 | 143% | –
Y[Aib]QGTFTSDYSK([AEEA-AEEA-γGlu-C18])LLDYMMQ[Aib]DFVQWLLEGGPSSGAPPPS-NH2 [SEQ ID NO. 84] | 100 | 71% | 28 | 20% | 470 | 335% | –
